Laboratory results as given in the supplement of paper PMC10567573.

B1: DCAF4 (parent)
chain: TTKCVRQYEGHVNEYAYLPLHVHE

Variants of: B1
Assay: protein stability index of a GFP-peptide fusion (GPS, HEK-293T) (PSI 1-6); higher = more stable
Conditions: c terminus: a fixed tail appended
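Also: lentivirally expressed fusions sorted by FACS into six bins by GFP to DsRed ratio, PSI derived from sequencing read proportions per bin multiplied by bin number.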

| Variant | protein stability index |
| --- | --- |
| TTKCVRQYEGHVNEYAYRPLHVHE | 2.89 |
| TTKCVRQYEGHVNEYAYVPLHVHE | 2.48 |
| TTKCVRQYEGHVNEYAYYPLHVHE | 2.38 |
| TTKCVRQYEGHVNEYAYTPLHVHE | 2.79 |
| TTKCVRQYEGHVNEYAYQPLHVHE | 3.16 |
| TTKCVRQYEGHVNEYAYWPLHVHE | 2.28 |
| TTKCVRQYEGHVNEYAYSPLHVHE | 2.98 |
| TTKCVRQYEGHVNEYAYLPLAVHE | 2.58 |
| TTKCVRQYEGHVNEYAYLPLGVHE | 2.06 |
| TTKCVRQYEGHVNEYAYLPLLVHE | 2.2 |
| TTKCVRQYEGHVNEYAYLPLSVHE | 3.05 |
| TTKCVRQYEGHVNEYAYLPLTVHE | 2.8 |
| TTKCVRQYEGHVNEYAYLPLKVHE | 2.16 |
| TTKCVRQYEGHVNEYAYLPLRVHE | 2.69 |
| TTKCVRQYEGHVNEYAYLPLPVHE | 2.63 |
| TTKCVRQYEGHVNEYAYLPLYVHE | 1.9 |
| TTKCVRQYEGHVNEYAYLPLWVHE | 1.75 |
| TTKCVRQYEGHVNEYAYLPLNVHE | 3.33 |
| TTKCVRQYEGHVNEYAYLPLEVHE | 3.27 |
| TTKCVRQYEGHVNEYAYLPLMVHE | 2.46 |
| TTKCVRQYEGHVNEYAYLPLDVHE | 3.55 |
| TTKCVRQYEGHVNEYAYLPLFVHE | 1.87 |
| TTKCVRQYEGHVNEYAYLPLIVHE | 2.12 |
| TTKCVRQYEGHVNEYAYLPLVVHE | 2.25 |

| Variant | protein stability index |
| --- | --- |
| TTKCVRQYEGHVNEYAYLPLCVHE | 2.56 |
| TTKCVRQYEGHVNEYAYLPLQVHE | 2.66 |
| TTKCVRQYEGHVNEYAYLPLHPHE | 2.63 |
| TTKCVRQYEGHVNEYAYLPLHRHE | 2.58 |
| TTKCVRQYEGHVNEYAYLPLHAHE | 2.79 |
| TTKCVRQYEGHVNEYAYLPLHIHE | 2.42 |
| TTKCVRQYEGHVNEYAYLPLHEHE | 3.65 |
| TTKCVRQYEGHVNEYAYLPLHWHE | 2.61 |
| TTKCVRQYEGHVNEYAYLPLHSHE | 3.24 |
| TTKCVRQYEGHVNEYAYLPLHDHE | 3.85 |
| TTKCVRQYEGHVNEYAYLPLHGHE | 2.13 |
| TTKCVRQYEGHVNEYAYLPLHFHE | 2.01 |
| TTKCVRQYEGHVNEYAYLPLHHHE | 2.96 |
| TTKCVRQYEGHVNEYAYLPLHQHE | 3.3 |
| TTKCVRQYEGHVNEYAYLPLHTHE | 3.12 |
| TTKCVRQYEGHVNEYAYLPLHKHE | 3.27 |
| TTKCVRQYEGHVNEYAYLPLHCHE | 2.54 |
| TTKCVRQYEGHVNEYAYLPLHLHE | 2.54 |
| TTKCVRQYEGHVNEYAYLPLHYHE | 2.43 |
| TTKCVRQYEGHVNEYAYLPLHNHE | 3.19 |
| TTKCVRQYEGHVNEYAYLPLHMHE | 3.06 |
| TTKCVRQYEGHVNEYAYLPLHVIE | 3.56 |
| TTKCVRQYEGHVNEYAYLPLHVME | 2.12 |
| TTKCVRQYEGHVNEYAYLPLHVAE | 2.78 |

| Variant | protein stability index |
| --- | --- |
| TTKCVRQYEGHVNEYAYLPLHVDE | 3.45 |
| TTKCVRQYEGHVNEYAYLPLHVLE | 2.51 |
| TTKCVRQYEGHVNEYAYLPLHVCE | 2.52 |
| TTKCVRQYEGHVNEYAYLPLHVKE | 3.44 |
| TTKCVRQYEGHVNEYAYLPLHVFE | 1.46 |
| TTKCVRQYEGHVNEYAYLPLHVGE | 2.76 |
| TTKCVRQYEGHVNEYAYLPLHVNE | 2.81 |
| TTKCVRQYEGHVNEYAYLPLHVEE | 3.21 |
| TTKCVRQYEGHVNEYAYLPIHVHE | 2.74 |
| TTKCVRQYEGHVNEYAYLPQHVHE | 3.06 |
| TTKCVRQYEGHVNEYAYLPAHVHE | 2.78 |
| TTKCVRQYEGHVNEYAYLPKHVHE | 2.8 |
| TTKCVRQYEGHVNEYAYLPNHVHE | 3.1 |
| TTKCVRQYEGHVNEYAYLPVHVHE | 2.44 |
| TTKCVRQYEGHVNEYAYLPCHVHE | 2.67 |
| TTKCVRQYEGHVNEYAYLPYHVHE | 2.32 |
| TTKCVRQYEGHVNEYAYLPDHVHE | 3.64 |
| TTKCVRQYEGHVNEYAYLPTHVHE | 2.85 |
| TTKCVRQYEGHVNEYAYLPRHVHE | 3.21 |
| TTKCVRQYEGHVNEYAYLPEHVHE | 3.53 |
| TTKCVRQYEGHVNEYAYLPGHVHE | 2.41 |
| TTKCVRQYEGHVNEYAYLPSHVHE | 3.13 |
| TTKCVRQYEGHVNEYAYLPWHVHE | 2.33 |
| TTKCVRQYEGHVNEYAYLPPHVHE | 3.31 |

| Variant | protein stability index |
| --- | --- |
| TTKCVRQYEGHVNEYAYLPFHVHE | 2.35 |
| TTKCVRQYEGHVNEYAYLPHHVHE | 3 |
| TTKCVRQYEGHVNEYAYLPMHVHE | 2.63 |
| TTKCVRQYEGHVNEYAYLALHVHE | 1.89 |
| TTKCVRQYEGHVNEYAYLLLHVHE | 2.16 |
| TTKCVRQYEGHVNEYAYLTLHVHE | 1.53 |
| TTKCVRQYEGHVNEYAYLCLHVHE | 1.84 |
| TTKCVRQYEGHVNEYAYLYLHVHE | 2.67 |
| TTKCVRQYEGHVNEYAYLSLHVHE | 1.46 |
| TTKCVRQYEGHVNEYAYLQLHVHE | 1.75 |
| TTKCVRQYEGHVNEYAYLILHVHE | 2.46 |
| TTKCVRQYEGHVNEYAYLDLHVHE | 3.02 |
| TTKCVRQYEGHVNEYAYLKLHVHE | 1.87 |
| TTKCVRQYEGHVNEYAYLGLHVHE | 2.26 |
| TTKCVRQYEGHVNEYAYLMLHVHE | 2.47 |
| TTKCVRQYEGHVNEYAYLWLHVHE | 2.57 |
| TTKCVRQYEGHVNEYAYLELHVHE | 1.82 |
| TTKCVRQYEGHVNEYAYLVLHVHE | 2.22 |
| TTKCVRQYEGHVNEYAYLHLHVHE | 1.96 |
| TTKCVRQYEGHVNEYAYLFLHVHE | 1.71 |
| TTKCVRQYEGHVNEYAYLRLHVHE | 1.91 |
| TTKCVRQYEGHVNEYAYLNLHVHE | 2.33 |
